In the data set the target is T1, hex-ΔN61-NS3 (cc-hex fused NS3) (Human norovirus GI, UniProt Q83883 460-761).
T1 sequence: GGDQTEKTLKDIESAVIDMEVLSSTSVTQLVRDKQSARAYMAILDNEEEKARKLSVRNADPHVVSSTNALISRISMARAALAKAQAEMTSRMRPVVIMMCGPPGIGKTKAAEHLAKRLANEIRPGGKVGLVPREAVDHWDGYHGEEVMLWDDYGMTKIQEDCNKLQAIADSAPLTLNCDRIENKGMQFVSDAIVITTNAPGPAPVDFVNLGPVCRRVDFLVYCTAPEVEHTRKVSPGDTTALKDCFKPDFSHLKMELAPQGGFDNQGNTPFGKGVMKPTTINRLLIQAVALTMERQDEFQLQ
In words: EMSA; 20 µM protein, 0.2 nM RNA, 5 mM Mg2+; EMSA: 25 mM HEPES pH 8.0, 30 mM NaCl, 5 mM MgCl2, 2 mM DTT, RNasin, 5% glycerol, 37 °C 1 h, 6% native PAGE; tweezers buffer not in material. The following applies: protein: recombinant; tags: N-terminal 32-residue cc-hex replaces residues 1-61; chain copies: 6; label: 5' HEX; single strand, 42 nt.

With CAUUAUCGGAUAGUGGAACCUAGCUUCGACUAUCGGAUAAUC (ssRNA) [RNA1], the binding result was “binds”.

The values are drawn from PMC13683342, “Integrative structure of norovirus NS3 suggests a role in RNA transport”.
